Experimental data reported in paper PMC4837182, “Plasmodium falciparum Hsp70-z, an Hsp110 homologue, exhibits independent chaperone activity and interacts with Hsp70-1 in a nucleotide-dependent fashion” (Cell Stress & Chaperones, 2016).

Tests used:
[1] = molecular target: T1, recombinant Plasmodium falciparum Hsp70-z (PfHsp70-z) (Plasmodium falciparum); assay: SPR; ProteOn XPR36, ligand amine-coupled to GLC chip, analyte 125-2000 nM at 50 μl/min, PBS-Tween with 20 mM EDTA pH 7.4, 25 °C, Langmuir fit; with 5 mM ADP; settings: both partners purified
T1 construct: also called PfHsp110c; PfHsp110; not shown: His6, N-terminal, kept

[2] = molecular target: T1, recombinant Plasmodium falciparum …; assay: SPR; ProteOn XPR36, ligand amine-coupled to GLC chip, analyte 125-2000 nM at 50 μl/min, PBS-Tween with 20 mM EDTA pH 7.4, 25 °C, Langmuir fit; with 5 mM ATP; settings: both partners purified

B1: nucleotide binding domain of PfHsp70-1 (PfHsp70-1NBD) (domain or fragment)
chain: not shown
modifications: assayed without nucleotide or with ADP/ATP; N-terminal His6 tag from pQE30 left out. Locus PF3D7_0818900 (cytosolic PfHsp70-1, UniProt Q8IB24) is from memory, not given; NBD limits are
- Kd [1]: 98.6 nM
- koff [1]: 0.00026 s⁻¹
- kon [1]: 2630 M⁻¹ s⁻¹
- Kd [2]: 2.12 nM
- koff [2]: 9.43e-06 s⁻¹
- kon [2]: 4460 M⁻¹ s⁻¹
